Drawing on US20120316071A1 (published 2012), this text covers ECL signal for four molecules.

For assay [1], the target named is T1, rHuman EGF R/Fc Chimera, CF (R&D Systems Cat#344-ER) (human, UniProt P00533 25-645).
T1 construct: Bought recombinant Fc chimera; also called epidermal growth factor receptor; Fc part of the bought chimera not given
As to the kind of experiment: ECL Multispot (MSD) assay, antigen spotted on plate, 10 nM Fab; blank spot 378.

The target of assay [2] is T2, rHuman HGF R/c-MET/Fc Chimera, CF (R&D Systems Cat#358-MT/CF) (human, UniProt P08581 25-932).
T2 construct: Bought recombinant Fc chimera; also called HGF R/Fc; hepatocyte growth factor receptor; Fc part of the bought chimera not given
Described as above.

For assay [3], the target named is T3, rHuman Notch-1/Fc Chimera, CF (R&D Systems Cat#3647-TK) (human, UniProt P46531 19-526).
T3 construct: Bought recombinant Fc chimera; Fc part of the bought chimera not given
The description is as above.

For assay [4], the target named is T4, rHuman CD44/Fc Chimera, CF (R&D Systems Cat#3660-CD) (human, UniProt P16070 21-220).
T4 construct: Bought recombinant Fc chimera; Fc part of the bought chimera not given
The assay is described as above.

Assay [5] has as its target T5, rHuman IGF-1 sR, CF (R&D Systems Cat#391-GR) (human, UniProt P08069 31-932).
T5 construct: Bought soluble receptor; also called insulin-like growth factor-1 soluble receptor
The assay is described as above.

The target of assay [6] is T6, rHuman P-Cadherin/Fc Chimera, CF (R&D Systems Cat#861-PC) (human, UniProt P22223 108-654).
T6 construct: Bought recombinant Fc chimera; Fc part of the bought chimera not given
The assay is described as above.

Assay [7] has as its target T7, rHuman Erythropoietin R/Fc Chimera, CF (R&D Systems Cat#963-ER) (human, UniProt P19235 25-250).
T7 construct: Bought recombinant Fc chimera; also called EPO R; EPO R/Fc; Fc part of the bought chimera not given
T7 sequence (looked up): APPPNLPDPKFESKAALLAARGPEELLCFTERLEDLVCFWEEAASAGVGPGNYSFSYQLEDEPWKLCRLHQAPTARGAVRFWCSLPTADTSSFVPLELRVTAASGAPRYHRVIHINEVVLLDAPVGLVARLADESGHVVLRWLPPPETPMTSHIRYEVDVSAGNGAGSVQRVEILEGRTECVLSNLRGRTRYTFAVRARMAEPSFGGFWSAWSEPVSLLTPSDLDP
The assay is described as above.

Assay [8] deals with T8, Recombinant Human DLL4 (R&D Systems Cat#1506-D4/CF) (human, UniProt Q9NR61 27-524).
T8 construct: Bought recombinant protein; also called delta-like protein 4; rHuman DLL4
The description is as above.

Assay [9] has as its target T9, rHuman ErbB2/Fc Chimera, CF (R&D Systems Cat#1129-ER) (human, UniProt P04626 23-652).
T9 construct: Bought recombinant Fc chimera; also called human epidermal growth factor 2 receptor; Fc part of the bought chimera not given
The assay is described as above.

Assay [10] has as its target T1, rHuman EGF R/Fc Chimera, CF (R&D …). As to the kind of experiment: ECL Multispot (MSD) assay, antigen spotted on plate, 10 nM Fab; blank spot 296.
In assay [11] the target is T2, rHuman HGF R/c-MET/Fc Chimera, CF (R&D …). The assay is described as above.
For assay [12], the target named is T3, rHuman Notch-1/Fc Chimera, CF (R&D …). The assay is described as above.
Assay [13] addresses T4, rHuman CD44/Fc Chimera, CF (R&D Systems …). Described as above.
For assay [14], the target named is T5, rHuman IGF-1 sR, CF (R&D Systems …). The description is as above.
In assay [15] the target is T6, rHuman P-Cadherin/Fc Chimera, CF (R&D …). Described as above.
For assay [16], the target named is T7, rHuman Erythropoietin R/Fc Chimera, CF …. Described as above.
Assay [17] concerns the target T8, Recombinant Human DLL4 (R&D Systems …). Described as above.
The target of assay [18] is T9, rHuman ErbB2/Fc Chimera, CF (R&D …). The description is as above.
The target of assay [19] is T1, rHuman EGF R/Fc Chimera, CF (R&D …). As to the kind of experiment: ECL Multispot (MSD) assay, antigen spotted on plate, 10 nM Fab; blank spot 271.
Assay [20] concerns the target T2, rHuman HGF R/c-MET/Fc Chimera, CF (R&D …). The description is as above.
Assay [21] addresses T3, rHuman Notch-1/Fc Chimera, CF (R&D …). The description is as above.
For assay [22], the target named is T4, rHuman CD44/Fc Chimera, CF (R&D Systems …). The description is as above.
In assay [23] the target is T5, rHuman IGF-1 sR, CF (R&D Systems …). The assay is described as above.
Assay [24] addresses T6, rHuman P-Cadherin/Fc Chimera, CF (R&D …). The description is as above.
For assay [25], the target named is T7, rHuman Erythropoietin R/Fc Chimera, CF …. Described as above.
In assay [26] the target is T8, Recombinant Human DLL4 (R&D Systems …). Described as above.
Assay [27] has as its target T9, rHuman ErbB2/Fc Chimera, CF (R&D …). The assay is described as above.
Assay [28] addresses T1, rHuman EGF R/Fc Chimera, CF (R&D …). As to the kind of experiment: ECL Multispot (MSD) assay, antigen spotted on plate, 10 nM Fab; blank spot 302.
Assay [29] addresses T2, rHuman HGF R/c-MET/Fc Chimera, CF (R&D …). Described as above.
Assay [30] has as its target T3, rHuman Notch-1/Fc Chimera, CF (R&D …). Described as above.
The target of assay [31] is T4, rHuman CD44/Fc Chimera, CF (R&D Systems …). Described as above.
Assay [32] addresses T5, rHuman IGF-1 sR, CF (R&D Systems …). The description is as above.
In assay [33] the target is T6, rHuman P-Cadherin/Fc Chimera, CF (R&D …). The description is as above.
Assay [34] has as its target T7, rHuman Erythropoietin R/Fc Chimera, CF …. The assay is described as above.
For assay [35], the target named is T8, Recombinant Human DLL4 (R&D Systems …). The description is as above.
Assay [36] has as its target T9, rHuman ErbB2/Fc Chimera, CF (R&D …). Described as above.

T2 sequence (P08581 25-932, change not shown): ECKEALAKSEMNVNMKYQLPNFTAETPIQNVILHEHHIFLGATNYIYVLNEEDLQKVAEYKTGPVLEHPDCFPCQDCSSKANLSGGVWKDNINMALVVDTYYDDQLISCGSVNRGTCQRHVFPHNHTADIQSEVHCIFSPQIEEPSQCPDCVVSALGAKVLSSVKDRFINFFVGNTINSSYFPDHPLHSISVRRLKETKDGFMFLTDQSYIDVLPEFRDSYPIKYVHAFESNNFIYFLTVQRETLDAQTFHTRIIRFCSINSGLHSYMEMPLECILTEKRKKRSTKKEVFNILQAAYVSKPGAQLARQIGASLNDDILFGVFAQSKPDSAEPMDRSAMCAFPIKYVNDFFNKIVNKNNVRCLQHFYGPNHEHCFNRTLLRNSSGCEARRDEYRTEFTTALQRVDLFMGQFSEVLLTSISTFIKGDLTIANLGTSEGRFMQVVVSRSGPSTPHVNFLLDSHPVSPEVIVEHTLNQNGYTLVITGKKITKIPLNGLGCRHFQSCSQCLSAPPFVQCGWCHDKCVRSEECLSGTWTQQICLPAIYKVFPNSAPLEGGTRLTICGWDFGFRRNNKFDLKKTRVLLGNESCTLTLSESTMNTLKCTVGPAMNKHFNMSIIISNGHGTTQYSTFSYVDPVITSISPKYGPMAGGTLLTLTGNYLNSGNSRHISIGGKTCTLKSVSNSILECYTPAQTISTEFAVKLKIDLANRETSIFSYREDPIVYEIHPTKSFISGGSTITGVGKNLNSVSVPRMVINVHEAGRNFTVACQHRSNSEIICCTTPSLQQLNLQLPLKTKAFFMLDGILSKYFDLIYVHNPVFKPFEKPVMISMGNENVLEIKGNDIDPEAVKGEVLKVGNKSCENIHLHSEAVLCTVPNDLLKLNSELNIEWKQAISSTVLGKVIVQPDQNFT

B1: Fab VH1-46_IGHD6-6*01_IGHJ1*01 S102A/S103P/S104F/H111F S84G & L6_IGKJ1*01 (Fab, V domains shown)
VH: QVQLVQSGAEVKKPGASVKVSCKASGYTFTSYYMHWVRQAPGQGLEWMGIINPSGGSTSYAQKFQGRVTMTRDTSTSTVYMELGSLRSEDTAVYYCAREEYAPFSAEYFQFWGQGTLVTVSS
VL: not shown
notes: Fab expressed in E. coli: VH joined to CH1 from Plasmid A (with His6 and Flag tags), VL joined to kappa CL from Plasmid C; also called APFF S84G
With B1, the ECL signal in assay [1] amounted to 435; in assay [2] it was 419; in assay [3], 473; in assay [4], 457; in assay [5] it was 395; in [6] it was 434. The ECL signal amounted to 429 in assay [7], 131000 in assay [8] and 299 in [9].

B2: Fab VH1-46_IGHD6-6*01_IGHJ1*01 S102A/S103P/S104F/H111F S84Q & L6_IGKJ1*01 (Fab, V domains shown)
VH: QVQLVQSGAEVKKPGASVKVSCKASGYTFTSYYMHWVRQAPGQGLEWMGIINPSGGSTSYAQKFQGRVTMTRDTSTSTVYMELQSLRSEDTAVYYCAREEYAPFSAEYFQFWGQGTLVTVSS
VL: not shown
notes: Fab expressed in E. coli: VH joined to CH1 from Plasmid A (with His6 and Flag tags), VL joined to kappa CL from Plasmid C; also called APFF S84Q
In the case of B2, the ECL signal in assay [10] amounted to 347; in [11], 255; in assay [12] it was 416; in assay [13], 372; in assay [14], 373; in assay [15] it was 357. The ECL signal worked out at 288 in assay [16], 122000 in assay [17] and 311 in assay [18].

B3: Fab VH1-46_IGHD6-6*01_IGHJ1*01 S102A/S103P/S104F/H111F S84N & L6_IGKJ1*01 (Fab, V domains shown)
VH: QVQLVQSGAEVKKPGASVKVSCKASGYTFTSYYMHWVRQAPGQGLEWMGIINPSGGSTSYAQKFQGRVTMTRDTSTSTVYMELNSLRSEDTAVYYCAREEYAPFSAEYFQFWGQGTLVTVSS
VL: not shown
notes: Fab expressed in E. coli: VH joined to CH1 from Plasmid A (with His6 and Flag tags), VL joined to kappa CL from Plasmid C; also called APFF S84N
B3: the ECL signal is 337 in assay [19]; 375 in assay [20]; 309 in assay [21]; 251 in assay [22]; 324 in assay [23]; 167 in [24]. For the same molecule, the ECL signal was 415 in assay [25], 135000 in [26] and 307 in assay [27].

B4: Fab VH1-46_IGHD6-6*01_IGHJ1*01 S102A/S103P/S104F/H111F S84H & L6_IGKJ1*01 (Fab, V domains shown)
VH: QVQLVQSGAEVKKPGASVKVSCKASGYTFTSYYMHWVRQAPGQGLEWMGIINPSGGSTSYAQKFQGRVTMTRDTSTSTVYMELHSLRSEDTAVYYCAREEYAPFSAEYFQFWGQGTLVTVSS
VL: not shown
notes: Fab expressed in E. coli: VH joined to CH1 from Plasmid A (with His6 and Flag tags), VL joined to kappa CL from Plasmid C; also called APFF S84H
B4: the ECL signal is 306 in [28]; 374 in assay [29]; 331 in assay [30]; 382 in assay [31]; 353 in assay [32]; 319 in [33]. The figures for the ECL signal in [34], in assay [35] and in assay [36] were 318, 138000 and 301, respectively.
